From patent US20200206304A1, “METHODS AND COMPOSITIONS FOR EFFICIENT DELIVERY THROUGH MULTIPLE BIO BARRIERS” (Cedars-Sinai Medical Center, priority 2017, published 2020)
Like-named read-outs stand apart in the source and are kept apart here. Square brackets hold non-standard residues; d marks the D form. Ends that are not written are not given here.

Legend:
amyloid β (Aβ) plaques = amyloid β (Aβ) plaques (UniProt P05067); test: in vivo labelling of Aβ plaques after i.v. injection of rhodamine-labelled conjugate into APPswe/PS1ΔE9 AD mice, dose 8X; fluorescence microscopy of brain sections
Sequence of amyloid β (Aβ) plaques (P05067 672-713): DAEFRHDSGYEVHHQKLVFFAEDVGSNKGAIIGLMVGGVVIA

[1] = Zeta potential measurements (Zetasizer Nano ZS90); assay type: physicochemical; details: in PBS; voltage 150 mV
Experimental: Zeta Potential Measurements: Synthesized conjugates were characterized with respect to their ζ potential using a Zetasizer Nano ZS90 (Malvern Instruments, Malvern, UK). Ten microliter aliquots of nanoconjugate samples were diluted in 0.99 mL PBS, and the voltage applied was 150 mV. Data represent the mean of three measurements±their standard deviation.

Aβ plaque = target: T1, Aβ plaque (Homo sapiens, UniProt P05067); test: Percentage of total plaques labeled by mini nanodrugs in AD mice; assay type: in vivo,  (B6.Cg-Tg (APPswe/PS1ΔE9) 85Dbo/J hemizygous) mice
T1 construct: tissue Jackson Laboratories; host or cells: brain of 6-8 month old APPswe/PS1ΔE9 transgenic mice, plaques labelled in vivo after iv injection and counterstained on sections
T1 sequence (P05067 672-713 limits assumed): as the sequence (P05067 672-713) above
Experimental: Slides were air dries and fixed using freshly diluted 2% PFA for 5 minutes. The PFA was washed 3 timed with PBS, and brains were covered with 70% EtOH for 5 minutes before washing with dH2O for 2 minutes. 1× Amylo-Glo (Biosenses, #TR-300-AG 100×, diluted with PBS) was then added for 10 minutes. The slides were then washed with PBS (5 minutes) and dH2O (15 seconds) and mounted (Fluoromount-G, No DAPI, Invitrogen), and stored at 4° C. prior to imaging.
Brains were collected and preserved in OTC for immunostaining.

brain parenchyma = details: cortex; 0.274 μmol/Kg
Experimental: To determine how nanoconjugate-associated fluorescence relates to the anatomy of the vasculature, the distance of each analyzed ROI was manually measured from the nearest blood vessel wall (using line tool in FIJI). For tumor bearing mice, 5 images per tumor tissue and 5 per brain tissue were analyzed for each mouse. Intensity values were then plotted against the location of the blood vessel wall and summarized in scatterplots (e.g., FIG. 14B).
Drug concentrations are listed with regard to total nanoconjugate content systemically injected. […] Referring to FIG. 14B, fluorescence measurements were obtained from 10 μm^2-sized regions of interest (ROI) that were randomly overlaid on regions devoid of vasculature shown as yellow squares on photograph 1 of FIG. 14A. Intensity measurements and positions were then obtained for each ROI and plotted against the location of the nearest blood vessel wall. FIG. 14C is set of charts: chart 1—Cortex; chart 2—Midbrain and chart 3 Hippocampus, illustrating average nanoconjugate fluorescence in the brain parenchyma measured following injections at four different drug concentrations. In this figure, fluorescence is shown as relative fluorescence, which is the measured nanoconjugate fluorescence after subtraction of autofluorescence imaged from PBS injected animals using similar acquisition settings.
FIG. 14B explores this relationship in a plot from all of the measurements (for each condition: 4 mice, 3-4 sections with 20 random measurements each). All fluorescence intensity measurements were conducted with 10 μm^2-sized regions of interest placed outside of tomato-lectin stained blood vessels (ROI as in Photograph 1 of FIG. 14A); the positions of these ROIs were then measured against the location of the nearest blood vessel wall to produce the scatterplot in FIG. 14B.
The resulting data were used as a metric to examine how well the mini nanodrug was able to travel from the vessels into the surrounding parenchyma and encounter brain cells. […] Nanoconjugate diffused fluorescence intensity vs. ‘distance from vasculature’ measurements in brain parenchyma of mice injected with nanoconjugates at a dose of 0.274 μmol/Kg. Fluorescence measurements were obtained from […] regions of interest (ROI) that were randomly overlaid on regions devoid of vasculature (shown by yellow squares in FIG. 22A). Intensity measurements and positions were then obtained for each ROI and plotted against the location of the nearest blood vessel wall.

brain cells = details: 0.274 μmol/kg
Experimental: For the particulate fluorescence analysis, images were converted to binary images, and then 5 ROIs 20*20 μm^2 were drawn per image. The area of each particle on the ROI was measured using the Image) particle analysis tool, where each particle was measured separately. Sizes were then summarized, sorted, and further analyzed using Minitab18 software (Minitab, Inc, State College, Pa., USA). Particulate areas observed between different conditions were compared via a one-way ANOVA combined with post-hoc Tukey tests to test differences between each experimental group.
A more reliable method to separate the particulate from the cellular fluorescence was reasoned to be by adjusting the levels of the image and converting it to a binary image, allowing the detection of only particulates eliminating interference of the diffused background. FIGS. 29A-29D illustrate intracellular fluorescence of mini nanodrugs.
Each ROI was converted to binary (black and white) image and the area and number of particles were quantified. 3 images per brain area were tested for 3 mice per group.
The particle content (example of ROI in FIG. 29A) then was measured. The average size of the particulate fluorescence is a proxy to estimate the intracellular load of fluorescent nanoconjugates following their injections. An example of such an analysis is shown in FIG. 29A: the yellow squares indicate regions of interest that were used to quantify particulate fluorescence. FIGS. 29B-29C summarize the average size of the intracellular fluorescence particles in the cortex ([…]), midbrain (FIG. 29C), and the hippocampus (FIG. 29C).

neurons and astroglia = details: for % of positive cells, Cortex astroglia: astroglia (GFAP); for % of positive cells, Cortex neurons: neurons (Neun)
Experimental: Neuronal and glial counterstaining: In FIGS. 27A-27C, brain tissue from drug-injected mice was counterstained to determine if our nanoconjugates are taken up by neurons or glia. Cryosections ([…]) were air-dried for 10 min, fixed with 2% paraformaldehyde for 5 min, and then rinsed three times with PBS. […] The antibodies anti-Neun (Abcam, Cambridge, Mass., USA; AB104225) and anti-GFAP (Neuromics, Edina, Minn., USA; C1122102) were then diluted 1:500 in PBS-T and tissue sections incubated simultaneously with antibody solutions overnight at 4° C. in a humid chamber. Tissue sections were then washed five times with PBS-T and incubated in appropriate secondary antibody diluted 1:250 in PBS-T, for 2-4 h. After five washes in PBS at room temperature, sections were mounted between coverslips in Fluoromount-G with DAPI.
To this end, after systemic injection of our D-conjugates we counterstained brain tissue sections of hippocampus and cortex with anti-Neun to label neurons, and with anti-GFAP to label astroglia (FIGS. 27A-27C) and inspected the stained sections for red fluorescent particulates. […] Positive neurons and glia cells were counted after systemic injection of conjugates containing D1, D3, AC189 peptides, and of a control PBS (FIGS. 27A-27C).

neurons = details: 0.274 μmol/Kg, vs PBS
glioblastoma GL261 = details: mouse, in vivo
Brain (other hemisphere) = details: 2 h, PBS background subtracted
[2] = test system: blood-brain barrier (BBB); details: transgenic mice vs normal mice, doses 2×-8×
Experimental: AD-Mouse models: 6-8 month old […] (B6.Cg-Tg (APPswe/PS1ΔE9) 85Dbo/J hemizygous) mice were obtained from Jackson Laboratories. Mouse maintenance and experimental procedures followed the guidelines established by the Cedars Sinai Institutional Animal Care and Use Committee (IACUC Protocol #7416). Three to four mice of each sex were used for each experiment. Nanoconjugates were dissolved freshly in PBS (pH 7.4) prior to each experiment and injected intravenously (i.v.) into the lateral tail vein. […] Mice were anesthetized with isoflurane beforehand and their tails were briefly warmed to facilitate injections. The drug injection volume was kept constant at 150 μL. After each injection, mice were promptly returned to their cages. Brains were collected and preserved in OTC for immunostaining.
The brains were harvested and a 14 μm thick slices which were fixed and stained with DAPI to envision the nuclei
A comparison with normal brain was beneficial for understanding of the development of Alzheimer's disease.

[3] = target: low density lipoprotein receptor-related protein-1 (LRP-1) (mouse (endogenous receptor of the injected BALB/C mice)) (UniProt Q91ZX7); test: cell-based or functional assay
Sequence of low density lipoprotein receptor-related protein-1 (LRP-1) (mouse (endogenous receptor of the injected BALB/C mice)) (Q91ZX7 20-4545): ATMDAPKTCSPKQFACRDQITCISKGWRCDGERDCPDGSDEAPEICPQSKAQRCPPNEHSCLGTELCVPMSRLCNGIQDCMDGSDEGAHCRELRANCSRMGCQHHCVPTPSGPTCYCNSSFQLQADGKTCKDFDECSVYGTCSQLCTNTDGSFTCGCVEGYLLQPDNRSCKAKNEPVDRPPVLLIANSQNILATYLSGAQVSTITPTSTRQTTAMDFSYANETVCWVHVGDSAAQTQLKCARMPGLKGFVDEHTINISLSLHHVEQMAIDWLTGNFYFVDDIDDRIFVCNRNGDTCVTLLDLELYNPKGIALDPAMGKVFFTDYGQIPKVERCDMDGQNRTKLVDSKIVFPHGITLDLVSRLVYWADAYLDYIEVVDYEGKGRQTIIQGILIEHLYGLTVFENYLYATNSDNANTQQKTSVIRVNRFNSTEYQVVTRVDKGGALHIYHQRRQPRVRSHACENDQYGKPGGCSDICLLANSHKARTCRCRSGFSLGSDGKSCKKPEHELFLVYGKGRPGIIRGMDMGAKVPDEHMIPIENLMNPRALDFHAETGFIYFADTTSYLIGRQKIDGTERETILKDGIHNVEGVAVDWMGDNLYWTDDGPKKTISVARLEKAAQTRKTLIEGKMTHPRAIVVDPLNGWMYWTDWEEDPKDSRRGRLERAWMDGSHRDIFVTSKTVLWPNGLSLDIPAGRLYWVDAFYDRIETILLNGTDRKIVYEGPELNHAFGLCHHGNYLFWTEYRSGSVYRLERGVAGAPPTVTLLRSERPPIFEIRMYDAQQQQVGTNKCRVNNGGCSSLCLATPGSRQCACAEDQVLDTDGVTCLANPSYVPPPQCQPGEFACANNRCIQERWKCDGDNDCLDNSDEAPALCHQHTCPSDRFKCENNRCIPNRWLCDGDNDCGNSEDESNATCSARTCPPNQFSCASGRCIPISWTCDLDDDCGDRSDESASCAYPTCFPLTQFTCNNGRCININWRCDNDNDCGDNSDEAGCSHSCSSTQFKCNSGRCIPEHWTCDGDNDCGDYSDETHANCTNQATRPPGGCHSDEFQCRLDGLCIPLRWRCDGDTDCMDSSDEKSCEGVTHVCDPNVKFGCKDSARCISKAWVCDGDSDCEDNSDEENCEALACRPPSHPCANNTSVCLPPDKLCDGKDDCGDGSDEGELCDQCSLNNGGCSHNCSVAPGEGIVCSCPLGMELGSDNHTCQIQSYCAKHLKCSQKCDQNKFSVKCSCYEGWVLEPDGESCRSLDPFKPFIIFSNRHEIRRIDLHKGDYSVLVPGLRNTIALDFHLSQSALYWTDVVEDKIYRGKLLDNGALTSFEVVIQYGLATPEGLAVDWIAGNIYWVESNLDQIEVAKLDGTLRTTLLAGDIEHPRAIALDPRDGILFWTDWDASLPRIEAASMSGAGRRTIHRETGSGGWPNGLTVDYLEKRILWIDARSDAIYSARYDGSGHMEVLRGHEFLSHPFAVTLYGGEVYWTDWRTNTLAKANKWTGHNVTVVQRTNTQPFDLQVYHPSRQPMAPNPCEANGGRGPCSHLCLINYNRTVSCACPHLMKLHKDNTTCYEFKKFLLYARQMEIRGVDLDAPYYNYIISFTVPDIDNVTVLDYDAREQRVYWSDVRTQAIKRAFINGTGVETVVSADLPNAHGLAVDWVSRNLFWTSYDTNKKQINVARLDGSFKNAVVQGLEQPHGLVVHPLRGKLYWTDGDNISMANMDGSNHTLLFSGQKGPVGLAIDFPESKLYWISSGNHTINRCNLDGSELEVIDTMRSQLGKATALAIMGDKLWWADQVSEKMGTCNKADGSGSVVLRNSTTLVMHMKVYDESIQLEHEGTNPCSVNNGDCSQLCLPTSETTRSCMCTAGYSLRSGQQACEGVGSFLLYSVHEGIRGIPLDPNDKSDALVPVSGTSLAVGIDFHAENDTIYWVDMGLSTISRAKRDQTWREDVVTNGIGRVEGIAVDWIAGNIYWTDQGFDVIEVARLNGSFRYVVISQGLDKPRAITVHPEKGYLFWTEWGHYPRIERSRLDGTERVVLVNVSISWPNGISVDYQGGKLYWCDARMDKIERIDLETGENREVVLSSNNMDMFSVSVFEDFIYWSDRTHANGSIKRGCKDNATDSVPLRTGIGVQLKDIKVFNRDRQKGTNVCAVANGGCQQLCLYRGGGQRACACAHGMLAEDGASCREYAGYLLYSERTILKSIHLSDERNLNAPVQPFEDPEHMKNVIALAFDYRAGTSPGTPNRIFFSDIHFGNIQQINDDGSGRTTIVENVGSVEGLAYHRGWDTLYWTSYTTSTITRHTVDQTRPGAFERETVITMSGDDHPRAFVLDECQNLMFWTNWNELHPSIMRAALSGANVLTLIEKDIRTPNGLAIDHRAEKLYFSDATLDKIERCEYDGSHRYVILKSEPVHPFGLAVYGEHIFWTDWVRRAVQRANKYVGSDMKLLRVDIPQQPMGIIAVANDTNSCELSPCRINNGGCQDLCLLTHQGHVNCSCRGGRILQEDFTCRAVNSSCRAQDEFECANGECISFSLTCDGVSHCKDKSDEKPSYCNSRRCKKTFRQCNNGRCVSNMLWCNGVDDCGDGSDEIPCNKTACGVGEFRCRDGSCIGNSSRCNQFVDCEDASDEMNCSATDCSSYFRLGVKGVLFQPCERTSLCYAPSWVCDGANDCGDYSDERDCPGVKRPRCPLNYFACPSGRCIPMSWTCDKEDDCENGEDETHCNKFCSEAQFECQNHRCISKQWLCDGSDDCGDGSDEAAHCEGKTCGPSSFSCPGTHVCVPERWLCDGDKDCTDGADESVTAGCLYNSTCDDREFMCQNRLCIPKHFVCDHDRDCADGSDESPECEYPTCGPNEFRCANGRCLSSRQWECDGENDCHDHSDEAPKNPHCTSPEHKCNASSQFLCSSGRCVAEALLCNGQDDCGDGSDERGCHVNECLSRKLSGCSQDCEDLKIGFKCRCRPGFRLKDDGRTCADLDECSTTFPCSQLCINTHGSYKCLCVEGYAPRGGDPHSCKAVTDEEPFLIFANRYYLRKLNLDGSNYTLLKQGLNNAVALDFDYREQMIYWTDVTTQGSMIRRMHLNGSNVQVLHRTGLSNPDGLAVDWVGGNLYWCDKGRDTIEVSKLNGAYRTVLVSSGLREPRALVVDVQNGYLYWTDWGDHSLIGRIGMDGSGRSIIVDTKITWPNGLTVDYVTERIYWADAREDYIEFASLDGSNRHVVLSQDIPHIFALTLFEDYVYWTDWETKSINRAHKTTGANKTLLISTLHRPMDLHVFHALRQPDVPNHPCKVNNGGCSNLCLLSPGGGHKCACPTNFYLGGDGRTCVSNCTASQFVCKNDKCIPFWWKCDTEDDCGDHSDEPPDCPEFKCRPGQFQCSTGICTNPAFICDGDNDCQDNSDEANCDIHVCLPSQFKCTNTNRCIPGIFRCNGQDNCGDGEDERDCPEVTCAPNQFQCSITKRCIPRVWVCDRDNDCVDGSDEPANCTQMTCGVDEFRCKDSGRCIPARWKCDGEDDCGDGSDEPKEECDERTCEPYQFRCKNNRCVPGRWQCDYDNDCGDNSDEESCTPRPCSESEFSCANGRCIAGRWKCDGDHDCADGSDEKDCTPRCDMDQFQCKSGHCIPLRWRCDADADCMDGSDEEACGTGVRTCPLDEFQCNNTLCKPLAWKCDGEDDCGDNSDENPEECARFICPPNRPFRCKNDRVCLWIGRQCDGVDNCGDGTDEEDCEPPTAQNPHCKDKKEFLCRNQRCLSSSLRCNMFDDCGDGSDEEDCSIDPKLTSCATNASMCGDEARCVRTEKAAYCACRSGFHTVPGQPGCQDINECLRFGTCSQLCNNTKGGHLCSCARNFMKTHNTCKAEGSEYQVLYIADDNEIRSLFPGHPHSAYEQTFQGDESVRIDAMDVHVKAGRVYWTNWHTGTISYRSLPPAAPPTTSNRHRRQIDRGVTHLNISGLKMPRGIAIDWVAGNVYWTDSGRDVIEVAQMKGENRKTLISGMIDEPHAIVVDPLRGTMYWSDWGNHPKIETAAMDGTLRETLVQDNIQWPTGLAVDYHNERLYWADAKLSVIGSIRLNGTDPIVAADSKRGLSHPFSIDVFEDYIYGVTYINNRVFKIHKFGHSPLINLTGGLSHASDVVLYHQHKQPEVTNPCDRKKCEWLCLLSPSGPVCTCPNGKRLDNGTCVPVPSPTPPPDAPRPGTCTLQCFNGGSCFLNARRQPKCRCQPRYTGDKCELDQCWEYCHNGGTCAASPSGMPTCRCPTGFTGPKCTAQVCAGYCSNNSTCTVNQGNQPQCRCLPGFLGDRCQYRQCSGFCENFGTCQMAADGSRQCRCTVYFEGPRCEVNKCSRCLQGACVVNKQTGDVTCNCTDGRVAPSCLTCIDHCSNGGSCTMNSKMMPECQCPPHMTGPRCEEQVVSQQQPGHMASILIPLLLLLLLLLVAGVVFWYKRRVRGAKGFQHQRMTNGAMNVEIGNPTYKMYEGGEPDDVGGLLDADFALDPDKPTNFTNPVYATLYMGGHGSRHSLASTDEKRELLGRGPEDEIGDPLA

[4] = injected dose 8X (0.55 μmol/Kg)

PMLA/LLL/B6/rhodamine
Percentage of total plaques labeled by the reagents (amyloid β (Aβ) plaques): 3.3%

PMLA/LLL/rhodamine
Percentage of total plaques labeled by the reagents (amyloid β (Aβ) plaques): 4.5%

PMLA/LLL/AP2/Miniap4/rhodamine [P/LLL/AP2/M4]
ζ potential [1]: −5.5 mV

PMLA/LLL/rhodamine (Leu-Leu-Leu; also: conjugated to PMLA with rhodamine, link not given here) [P/LLL, polymalic acid with tri-leucine (40%) and rhodamine]
Percentage of total plaques labeled by the reagents (Aβ plaque; [4]): 4.5%

PMLA/LLL/D1/rhodamine (peptide 1 QSHYRHISPAQVC; peptide 2 Leu-Leu-Leu; not fully specified) [P/LLL/D1]
cortex Y intercepts of fluorescence vs distance curves (exponential fits) (brain parenchyma): 21.6
increase of particle diameter in comparison with PBS (brain cells): 2.5 fold
#Labeled/#total counted cells, Cortex astroglia (neurons and astroglia): [5/40]
% of positive cells, Cortex astroglia (neurons and astroglia): 12.5%
#Labeled/#total counted cells, Cortex neurons (neurons and astroglia): [119/141]
% of positive cells, Cortex neurons (neurons and astroglia): 84.4%
#Labeled/#total counted cells, Hippocampus astroglia (neurons and astroglia): [4/57]
% of positive cells, Hippocampus astroglia (neurons and astroglia): 7.0%
#Labeled/#total counted cells, Hippocampus neurons (neurons and astroglia): [286/433]
% of positive cells, Hippocampus neurons (neurons and astroglia): 66.0%
Percentage of total plaques labeled by the reagents (Aβ plaque; [4]): 0%
average fluorescence per neuron nucleus (in words) (neurons): significantly higher than for PBS
Tumor fluorescence (glioblastoma GL261): 86.6
ratio Tumor/Brain (glioblastoma GL261): 16.4
Brain (other hemisphere) fluorescence (Brain (other hemisphere); dose 4X): 5.3

PMLA/M4/rhodamine (KAPETALD; not fully specified) [P/M4]
ζ potential [1]: −14.6 mV

PMLA/LLL/M4/rhodamine (peptide 1 KAPETALD; peptide 2 Leu-Leu-Leu; not fully specified) [P/LLL/M4]
ζ potential [1]: −10.4 mV
Percentage of total plaques labeled by the reagents (Aβ plaque; [4]): 0%
Tumor fluorescence (glioblastoma GL261): 86.2
ratio Tumor/Brain (glioblastoma GL261): 22.8
Brain (other hemisphere) fluorescence (Brain (other hemisphere); dose 4X): 3.8

PMLA/LLL/B6/rhodamine (peptide 1 CGHKAKGPRK; peptide 2 Leu-Leu-Leu; also: conjugated to polymalic acid (PMLA), rhodamine label) [P/LLL/B6]
ζ potential [1]: −6.1 mV
BBB permeation efficacy in AD brain (in words) [2]: A decrease was not observed
Percentage of total plaques labeled by the reagents (Aβ plaque; [4]): 3.3%
dose-dependent change of tumor fluorescence between 1× and 4× (glioblastoma GL261): 23 fold
Brain (other hemisphere) fluorescence (Brain (other hemisphere); dose 1X): 1.2
Brain (other hemisphere) fluorescence (Brain (other hemisphere); dose 4X): 6.8

PMLA/LLL/D3/rhodamine (peptide 1 RPRTRLHTHRNRC; peptide 2 Leu-Leu-Leu; not fully specified (some residues)) [P/LLL/D3]
cortex Y intercepts of fluorescence vs distance curves (exponential fits) (brain parenchyma): 21.1
increase of particle diameter in comparison with PBS (brain cells): 2.5 fold
#Labeled/#total counted cells, Cortex astroglia (neurons and astroglia): [7/46]
% of positive cells, Cortex astroglia (neurons and astroglia): 15.2%
#Labeled/#total counted cells, Cortex neurons (neurons and astroglia): [286/300]
% of positive cells, Cortex neurons (neurons and astroglia): 95.3%
#Labeled/#total counted cells, Hippocampus astroglia (neurons and astroglia): [14/47]
% of positive cells, Hippocampus astroglia (neurons and astroglia): 29.8%
#Labeled/#total counted cells, Hippocampus neurons (neurons and astroglia): [894/967]
% of positive cells, Hippocampus neurons (neurons and astroglia): 92.45%
Percentage of total plaques labeled by the reagents (Aβ plaque; injected dose 2X): 0% all in a single box
Percentage of total plaques labeled by the reagents (Aβ plaque; injected dose 4X): 0%
Percentage of total plaques labeled by the reagents (Aβ plaque; injected dose 6X): 0%
Percentage of total plaques labeled by the reagents (Aβ plaque; [4]): 21.1%
average fluorescence per neuron nucleus (in words) (neurons): significantly higher than for PBS
Tumor fluorescence (glioblastoma GL261): 92.6
ratio Tumor/Brain (glioblastoma GL261): 11.9
Brain (other hemisphere) fluorescence (Brain (other hemisphere); dose 4X): 7.8

PMLA/LLL/AP2/rhodamine
Percentage of total plaques labeled by the reagents (amyloid β (Aβ) plaques): 1.23%

B1: PMLA/LLL/D1/rhodamine (peptide)
peptide 1: [dQ][dS][dH][dY][dR][dH][dI][dS][dP][dA][dQ][dV]C
peptide 2: Leu-Leu-Leu
modifications: not fully specified (some residues, N-terminus); also: LLL amide-linked to PMLA carboxylates
P/LLL/D1/rh fluorescence intensity in the brain parenchyma (BBB crossing) on co-injection of a 70-fold molar excess of AP2 [3]: 54.5%
P/LLL/D1/rh fluorescence intensity in the parenchyma (transcytosis) with 21 µmol/kg free AP2 [3]: 50%
